B1: VvSDH3 (Vitis vinifera) (protein)
chain: MGSLPFTVSDLQTSVSGVRSNPTLLCTPLMGTTVEQMLTEMRKAKEIGADIVEIRLDCLRNFSPAQDLQILIKQSPLPTLVTYRPIWEGGQYEGDENKRQDALRLAMELGASYIDVELEVAHEFNNSIYGKKPQNFKVIVSSHNFHNTPSTEAIGNLVARIQASGADIVKIATTALDITDVARVLQVTVHSQVPTIAIVMGERGLISRLLSPKFGGYLTYGALEAGAISAPGQPTAKDLLDLYNFRLVKPDTKVYGIIGKPVGHSKSPLLFNAAFKKVGLNAVYVHLLVDDVEKFFNTYSAPDFISGCSCTIPHKEVAIKCMDTIDPIARKIGAINNIVRKPDGKLTAFNTDYIGAIEAIEDGLRESNGSSPAVGSPLAGKLFVVLGAGGAGKSLAYGAKEKGARVVVANRTFERAKDLADKVGGQALTLAEIENFHPEEGMILANTTSVGMKPKINDTPIPKHALKHYSLVFDAIYTPKDTRLLREAKESGKIIVYGTEMLIRQGFEQYKNFTGLPAPEELFRELMSKHA
notes: E. coli BL21(DE3); GST tag removed after purification
B2: VvSDH4 (Vitis vinifera) (protein)
chain: GARRNSTLICVPIMADSVDQMLGQIRKAKEVGGDLVEIRLDYLKNFSPRQDLQFLVKQSPLPTLVTYRPTWEGGQYDGDEGKRLDALRLAIELGADYIDVELQVAPEFINSIQGKTSGKVKIIVSSHNYQNTPSAEELGNLVARIQATGADIVKIATTALDITDCARIFQVLAHSQVPTIGIAMAERGLISRILSAKFGSYLTFGSLEAGVVSAPGQPTVKDLLDLYNFRQIGPDTKVHGVIGKPIGHSKSPHLYNSAFKSVGFNGIYLPLLVDSVKNFLATYSSPDFVGYSYTIPHKEDGLRCCDEIDPIAQAIGAISCMIRRPADGKLMGYNVDYLGAIAAIEEGLRASNGTTSVGSPLAGKLFVVIGAGGAGKALAYGGKEKGARVVVANRTFEKAKELASKVGGEAMTLAELENFHPEDGMILANTTSVGMKPNIDNTPLSKKALSRYSLVFDAIYTPKLTRLLREAQESGAIIVYGTEMFINQAFVQFERFTGLPAPKELIREVLVRNT
notes: partial cDNA lacking the first 17 aa (putative transit peptide); E. coli BL21(DE3); GST tag removed
B3: VvSDH1 (Vitis vinifera) (protein)
chain: MESGGMSKNSTLICVPIMGETIEKMVVDMSKAKTSGADLVEVRLDTLKRFNPRQDLEVLIRKCPLPTLFTYRPKWEGGQYEGDENSRRDALRLAMELGADYVDIELKVAHEFINSIHGRKPEKFKVIVSSHNYQNTPSVEDLGNLVVSIQATGADIVKIATTALEITDVARIFQITVHSQVPVIGLVMGERGLISRILCPKFSGYLTFGSLEPGIVSAPGQPTIKDLLNLYNFRQLGPDTKVFGVIGKPVSHSKSPHLYNEAFKSVGFNGVYVHLLVDDIAKFFHTYSAADFAGFSCTIPHKEAALKCCDEVSPVAKSIGAVNCIIRRPSDGKLFGYNTDYVGAISAIEDGLRDLHKISSTSGSPLAGKLFVVIGAGGAGKALAYGAKEKGARVVIANRTYARARELADAVGGDALSLADLNNFHPENGMILANTTSIGMQPKVDETPISKHALKYYSLVFDAIYTPKITRLLREAQESGATIVTGLEMFIGQAYEQFERFTGLPAPKELFKQFISNLQ
notes: as for B1

Tests used:
Assay in all cases: purified protein
Assay type in all cases: biochemical, Vitis vinifera
purified protein [1] = substrate: O=C(O)C1=C[C@@H](O)[C@@H](O)[C@H](O)C1; conditions: 2 mM NADP+, pH 9, 100 mM Bis-Tris Propane HCl, 30 °C
purified protein [2] = substrate: O=C(O)C1=CC(=O)[C@@H](O)[C@H](O)C1; conditions: 0.4 mM NADPH, pH 7, 100 mM Bis-Tris Propane HCl, 30 °C, 3-DHS reduction, pH 7.0
purified protein [3] = substrate: NC(=O)c1ccc[n+]([C@@H]2O[C@H](COP(=O)(O)OP(=O)(O)OC[C@H]3O[C@@H](n4cnc5c(N)ncnc54)[C@H](OP(=O)(O)O)[C@@H]3O)[C@@H](O)[C@H]2O)c1; conditions: 4 mM shikimate, pH 9, 100 mM Bis-Tris Propane HCl, 30 °C

| Protein | Km (purified protein [1]; pH 9.0) [µM] | Vmax (purified protein [1]; pH 9.0) [µmol/min/mg] | kcat (purified protein [1]; pH 9.0) [s⁻¹] | kcat/Km (purified protein [1]; pH 9.0) [M⁻¹ s⁻¹] | Km (purified protein [2]) [µM] | Vmax (purified protein [2]) [µmol/min/mg] | kcat (purified protein [2]) [s⁻¹] | kcat/Km (purified protein [2]) [M⁻¹ s⁻¹] | Km (purified protein [3]; pH 9.0, varied: cofactor) [µM] | Vmax (purified protein [3]; pH 9.0, varied: cofactor) [µmol/min/mg] | kcat (purified protein [3]; pH 9.0, varied: cofactor) [s⁻¹] | kcat/Km (purified protein [3]; pH 9.0, varied: cofactor) [M⁻¹ s⁻¹] | Km (purified protein [1]) [µM] | Vmax (purified protein [1]) [µmol/min/mg] | kcat (purified protein [1]) [s⁻¹] | kcat/Km (purified protein [1]) [M⁻¹ s⁻¹] | Km (purified protein [3]; varied: cofactor) [µM] | Vmax (purified protein [3]; varied: cofactor) [µmol/min/mg] | kcat (purified protein [3]; varied: cofactor) [s⁻¹] | kcat/Km (purified protein [3]; varied: cofactor) [M⁻¹ s⁻¹] |
| --- | --- | --- | --- | --- | --- | --- | --- | --- | --- | --- | --- | --- | --- | --- | --- | --- | --- | --- | --- | --- |
| B1 | 27.3 ± 10.4 | 5.4 | 5.16 ± 0.56 | 189000 | 46.3 ± 18.2 | 9 | 8.62 ± 0.93 | 186000 | 38.4 ± 11.9 | 27 | 26.1 ± 2.68 | 680000 | – | – | – | – | – | – | – | – |
| B2 | – | – | – | – | – | – | – | – | – | – | – | – | 146.8 ± 60 | 27.6 | 26.1 ± 4.97 | 178000 | 53.8 ± 5.8 | 30 | 28.9 ± 1.06 | 537000 |
| B3 | 90 ± 16 | 100 | 94.5 ± 7.2 | 1.05e+06 | 156.9 ± 31.3 | 102 | 95.8 ± 10.2 | 611000 | 214.7 ± 56.4 | 254 | 239 ± 26.3 | 1.11e+06 | – | – | – | – | – | – | – | – |

From PMC4892741, “Two shikimate dehydrogenases, VvSDH3 and VvSDH4, are involved in gallic acid biosynthesis in grapevine” (Journal of Experimental Botany, 2016)
